Test results from patent US20200055919A1 (ACCELERON PHARMA, published 2020).

How the values were obtained:
BMP9 = target: T1, BMP9 (UniProt Q9UK05 320-429); test: SPR (Biacore), Fc fusion captured by anti-Fc antibody, ligand injected, 37 C
T1 sequence (looked up): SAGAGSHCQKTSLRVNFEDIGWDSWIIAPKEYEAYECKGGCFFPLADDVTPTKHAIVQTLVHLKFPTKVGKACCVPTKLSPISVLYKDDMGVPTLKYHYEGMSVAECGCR
Procedure: (§1) A Biacore™-based binding assay was used to compare the ligand binding kinetics of an ActRIIB-Fc:ActRIIB(L79E)-Fc heterodimer with those of unmodified ActRIIB-Fc homodimer. Fusion proteins were captured onto the system using an anti-Fc antibody. Ligands were then injected and allowed to flow over the captured receptor protein at 37° C. Results are summarized in the table below, in which ligand off-rates (kd) most indicative of effective ligand traps are denoted in bold.

activin A [1] = target: T2, activin A (UniProt P08476 311-426); test: as above
T2 sequence (looked up): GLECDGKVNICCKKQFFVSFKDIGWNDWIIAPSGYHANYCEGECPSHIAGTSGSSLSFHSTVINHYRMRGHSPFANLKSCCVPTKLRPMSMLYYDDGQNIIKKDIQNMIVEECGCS
Procedure: as §1

BMP6 = target: T3, BMP6 (UniProt P22004 382-513, limits assumed); test: as above
T3 sequence (looked up): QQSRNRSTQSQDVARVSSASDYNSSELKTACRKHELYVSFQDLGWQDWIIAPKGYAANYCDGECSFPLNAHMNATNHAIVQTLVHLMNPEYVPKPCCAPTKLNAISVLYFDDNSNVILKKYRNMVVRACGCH
Procedure: as §1

activin B = target: T4, activin B (UniProt P09529 293-407); test: as above
T4 sequence (looked up): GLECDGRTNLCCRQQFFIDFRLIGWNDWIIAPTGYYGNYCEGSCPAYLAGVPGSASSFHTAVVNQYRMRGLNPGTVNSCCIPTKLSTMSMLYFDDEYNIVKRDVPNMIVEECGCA
Procedure: as §1

GDF11 = target: T5, GDF11 (UniProt O95390 299-407); test: as above
T5 construct: also called BMP11
T5 sequence (looked up): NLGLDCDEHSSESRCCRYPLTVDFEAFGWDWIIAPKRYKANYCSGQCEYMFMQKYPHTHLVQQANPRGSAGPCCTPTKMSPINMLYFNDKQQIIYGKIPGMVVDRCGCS
Procedure: as §1

GDF8 = target: T6, GDF8 (UniProt O14793 267-375); test: as above
T6 construct: also called myostatin
T6 sequence (looked up): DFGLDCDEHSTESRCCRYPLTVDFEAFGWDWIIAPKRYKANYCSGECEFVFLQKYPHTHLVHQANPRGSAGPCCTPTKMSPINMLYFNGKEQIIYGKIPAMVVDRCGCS
Procedure: as §1

BMP10 [2] = target: T7, BMP10 (UniProt O95393 317-424); test: as above
T7 sequence (looked up): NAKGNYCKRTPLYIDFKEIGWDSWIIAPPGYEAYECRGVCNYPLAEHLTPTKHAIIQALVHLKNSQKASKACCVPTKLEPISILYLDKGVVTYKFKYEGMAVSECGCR
Procedure: as §1

GDF3 = target: T8, GDF3 (UniProt Q9NR23 251-364); test: as above
T8 sequence (looked up): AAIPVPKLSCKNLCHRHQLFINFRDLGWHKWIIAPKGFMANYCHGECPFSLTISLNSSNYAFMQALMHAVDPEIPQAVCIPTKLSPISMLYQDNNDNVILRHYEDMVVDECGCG
Procedure: as §1

activin A [3] = target: T2, activin A; test: SPR (Biacore), 37 C
Procedure: as §1

BMP10 [4] = target: T7, BMP10; test: SPR (Biacore), 37 C
Procedure: as §1

B1: ActRIIB-Fc:ActRIIB(L79E)-Fc heterodimer (Fc fusion)
chain 1: GRGEAETRECIYYNANWELERTNQSGLERCEGEQDKRLHCYASWRNSSGTIELVKKGCWEDDFNCYDRQECVATEENPQVYFCCCEGNFCNERFTHLPEAGGPEVTYEPPPTAPT
chain 2: GRGEAETRECIYYNANWELERTNQSGLERCEGEQDKRLHCYASWRNSSGTIELVKKGCWLDDFNCYDRQECVATEENPQVYFCCCEGNFCNERFTHLPEAGGPEVTYEPPPTAPT
notes: also called ActRIIB-Fc:ActRIIB(L79E)-Fc heteromer; not shown: linker and engineered G1Fc; linker and complementary engineered G1Fc
BMP9
  Kd: > 2.8 nM
Activin A [1]
  Kd: 0.17 nM
  koff: 0.0015 s⁻¹
  kon: 8.8e+06 M⁻¹ s⁻¹
BMP6
  Kd: 0.056 nM
  koff: 0.018 s⁻¹
  kon: 3.3e+08 M⁻¹ s⁻¹
Activin B
  Kd: 0.025 nM
  koff: 0.00021 s⁻¹
  kon: 8.3e+06 M⁻¹ s⁻¹
GDF11
  Kd: 0.009 nM
  koff: 0.00036 s⁻¹
  kon: 4e+07 M⁻¹ s⁻¹
GDF8
  Kd: 0.15 nM
  koff: 0.0005 s⁻¹
  kon: 3.4e+06 M⁻¹ s⁻¹
BMP10 [2]
  Kd: 0.042 nM
  koff: 0.002 s⁻¹
  kon: 4.8e+07 M⁻¹ s⁻¹
GDF3
  Kd: 10 nM
  koff: 0.0059 s⁻¹
  kon: 580000 M⁻¹ s⁻¹
Activin A [3]
  fold faster off-rate compared to ActRIIB-Fc homodimer: ~10 fold
BMP10 [4]
  fold faster off-rate compared to ActRIIB-Fc homodimer: ~10 fold
